Reference: patent US20220259593A1, “CONTROL OF MAMMALIAN GENE DOSAGE USING CRISPR” (The Regents of the University of California, priority 2019, published 2022)

Tested on: K562 CRISPRi cells
Test: Constant region variant library pooled growth screen, K562
Type: cell-based, human
Details: sgRNA constant region variants
Method in brief: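 Cells were selected with puromycin for 2 days and then kept in RPMI-1640 spinner cultures, with duplicates handled separately. Targeting sequences comprised 3 sgRNAs per essential gene for 10 genes plus six non-targeting controls. Activities were normalized against pairing with the unmodified scaffold.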

[1] = activity relative to the un-modified constant region cr995
[2] = activity relative to the original, un-modified constant region cr995

B1: cr021 (nucleic acid)
guide: GTTTAAGCGCTAAGCTGGAAACAGCATAGCAAGTTTAAATAAGGCTAGTCCGTTATCAACTTGAAAAAGTGGCACCGAGTCGGTGCT
modifications: listed as DNA, chemistry not fully specified
Molecule B1 has a Mean relative activity [1] of 0.9786.

B2: cr556 (nucleic acid)
guide: GTTTAAGAGCTAAGCTGGAAACAGCATAGCAAGTTTAAATAAGGCTAGTCCGTTATCAACTCGAAAGAGTGATACCGAGTCGGTATT
modifications: listed as DNA, chemistry not fully specified
With B2 the Mean relative activity [1] was 0.9785.

B3: cr783 (nucleic acid)
guide: GTTTAAGAGCTAAGCTGGAAACAGCATAGCAAGTTTAAATAAGGCTAGTCCGTTATCATCTTGAAAAAGAGGAACCGAGTCGGTTCT
modifications: listed as DNA, chemistry not fully specified
For B3, the Mean relative activity [1] was 0.9779.

B4: cr224 (nucleic acid)
guide: GTTTAAGAGCTAAGCTGGAAACAGCATAGCAAGTTTAAATAAGGCTAGTCCGTTATCAACCTGAAAAGGTGGTATCGAGTCGATACT
modifications: listed as DNA, chemistry not fully specified
B4 gave a Mean relative activity [1] of 0.9777.

B5: cr327 (nucleic acid)
guide: GTTTAAGAGCTAAGCTGGAAACAGCATAGCAAGTTTAAATAAGGCTAGTCCGTTATCAACTTGCAAAAGTGGCACCGAGTCGGTGCT
modifications: listed as DNA, chemistry not fully specified
Molecule B5 has a Mean relative activity [2] of 1.066.

B6: cr147 (nucleic acid)
guide: GTTTAAGAGCTAAGCTGGAAACAGCATAGCAAGTTTAAATAAGGCTAGTCCGTTATCAACTTATAAAAGTGGCACCGACTCGGTGCT
modifications: listed as DNA, chemistry not fully specified
B6 showed a Mean relative activity [1] of 0.9753.

B7: cr359 (nucleic acid)
guide: GTTTAAGAGCTAAGCTGGAAACAGCATCGCAAGTTTAAATAAGGCTAGTCCGTTATCAACTTGAAAAAGTGGCACCGAGTCGGTGCT
modifications: listed as DNA, chemistry not fully specified
With B7 the Mean relative activity [1] was 0.9746.

B8: cr307 (nucleic acid)
guide: GTTTAAGAGCTAAGCTGGAAACAGCATAGCAAGTTTAAATAAGGCTAGTCCGTTATCAACTTGAAAAAGTGGCACCAAGTTGGTGCT
modifications: listed as DNA, chemistry not fully specified
B8 showed a Mean relative activity [1] of 0.9746.

B9: cr159 (nucleic acid)
guide: GTTTAAGAGCTAAGCTGGAAACAGCATAGCTAGTTTAAATAAGGCTAGTCCGTTATCAACTTGAAAAAGTGGCACCGAGTCGGTGCT
modifications: listed as DNA, chemistry not fully specified
B9 showed a Mean relative activity [1] of 0.9739.

B10: cr800 (nucleic acid)
guide: GTTTAAGAGCTAAGCTGGAAACAGCATAGCAAGTTTAAATAAGGTTAATCCGTTATCATCTTGAAAAAGAGACACCGAGTCGGTGTT
modifications: listed as DNA, chemistry not fully specified
B10 showed a Mean relative activity [1] of 0.9728.

B11: cr299 (nucleic acid)
guide: GTTTAAGAGCTAAGCTGGAAACAGCATAGCAAGTTTAAATAAGGCTAGTCCGTTATCAACTTGGGAAAGTGGCACCGAGTCGGTGCT
modifications: listed as DNA, chemistry not fully specified
B11 was tested, and the Mean relative activity [1] was 0.9718.

B12: cr644 (nucleic acid)
guide: GTTTAAGAGCTAAGCTGGAAACAGCATTGCAAGTTTAAATAAGGCTAGTCCGTTATCAACTTGAAAAAGTGGCACCGAGTCGGTGCT
modifications: listed as DNA, chemistry not fully specified
Work on B12 yielded a Mean relative activity [1] of 0.9694.

B13: cr825 (nucleic acid)
guide: GTTTAAGAGCTAAGCTGGAAACAGCATAGCAAGTTTAAATAAGGCTAGTCCGTTATCAACTTGAAAAAGTGGCTGCGAGTCGCAGCT
modifications: listed as DNA, chemistry not fully specified
With B13 the Mean relative activity [1] was 0.9691.

B14: cr360 (nucleic acid)
guide: GTTTAAGAGCTAAGCTGGAAACAGCATAGCAAGTTTAAATAAGGCTAGTCCGTTATCAACTTGAAAAAGTGGCATCGAGTCGATGCT
modifications: listed as DNA, chemistry not fully specified
For B14, the Mean relative activity [2] was 1.066.

B15: cr287 (nucleic acid)
guide: GTTTAAGAGCTAAGCTGGAAACAGCATAGCAAGTTTAAATAAGGCTAGTCCGTTATCAACTTGATAAAGTGGCACCGACTCGGTGCT
modifications: listed as DNA, chemistry not fully specified
B15 gave a Mean relative activity [1] of 0.9686.

B16: cr161 (nucleic acid)
guide: GTTTAAGAGCTAAGCTGGAAACAGCATAGCAAGTTTAAATAAGGCTAGTCCGTTATCAACTTGAACAAGTGGCACCGACTCGGTGCT
modifications: listed as DNA, chemistry not fully specified
B16 showed a Mean relative activity [1] of 0.9671.

B17: cr994 (nucleic acid)
guide: GTTTAAGAGCTAAGCTGGAAACAGCATAGCAAGTTTAAATAAGGCTAGTCCGTTATCAACTTGAAAAAGTGGCACCGATTCGGTGCT
modifications: listed as DNA, chemistry not fully specified
B17 was tested, and the Mean relative activity [1] was 0.9671.

B18: cr102 (nucleic acid)
guide: GTTTAAGAGCTAAGCTGGAAACAGCATAGCAAGTTTAAATAAGGCTAGTCCGTTATCAATTTGAAAAAATGGAACCGAGTCGGTTCT
modifications: listed as DNA, chemistry not fully specified
B18 showed a Mean relative activity [1] of 0.9651.

B19: cr306 (nucleic acid)
guide: GTTTAAGAGCTAAGCTGGAAACAGCATAGCAAGTTTAAATAAGGCTTGTCCGTTATCAACTTGAAAAAGTGGCACCGTGTCGGTGCT
modifications: listed as DNA, chemistry not fully specified
B19 gave a Mean relative activity [1] of 0.9647.

B20: cr707 (nucleic acid)
guide: GTTTAAGAGCTAAGCTGGAAACAGCATAGCAAGTTTAAATAAGGCTAGTCCGTTATCAACTTGAAAAAGTGGCACCGTGTCGGTGCT
modifications: listed as DNA, chemistry not fully specified
Work on B20 yielded a Mean relative activity [1] of 0.9632.

B21: cr831 (nucleic acid)
guide: GTTTAAGAGCTAAGCTGGAAACAGCATAGCAAGTTTAAATAAGGCTAGTCCGTTATCAATTTGAAAAAATGGCACCGAGTCGGTGCT
modifications: listed as DNA, chemistry not fully specified
For B21, the Mean relative activity [1] was 0.962.

B22: cr646 (nucleic acid)
guide: GTTTAAGAGCTAAGCTGGAAACAGCATAGCAAGTTTAAATAAGGCTAGTCCGTTATCAAATTGAAAAATTGGCTCCGAGTCGGAGCT
modifications: listed as DNA, chemistry not fully specified
B22 showed a Mean relative activity [1] of 0.962.
